The values below come from publication PMC9149119.

Like-named read-outs stand apart in the source and are kept apart here.

Data set [1] addresses T1, MsCAPP PP domain (MsPP111-328) (Marinitoga sp. 1137, UniProt PDB:7QAZ_1 1-219).
T1 sequence: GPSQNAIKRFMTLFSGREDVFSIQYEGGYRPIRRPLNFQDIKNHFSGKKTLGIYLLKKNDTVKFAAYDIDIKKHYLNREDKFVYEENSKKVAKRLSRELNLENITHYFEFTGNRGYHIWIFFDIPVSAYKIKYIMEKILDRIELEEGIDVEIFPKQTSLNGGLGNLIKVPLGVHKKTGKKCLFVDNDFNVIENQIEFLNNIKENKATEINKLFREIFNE
As to the kind of experiment: X-ray crystallography.

The target of data set [2] is T1, MsCAPP PP domain (MsPP111-328). Description: X-ray crystallography. The source holds these as a separate data set.

B1: dsDNA 6-mer (dsDNA)
DNA 1: CGTGCG
DNA 2: CGTGCG
For B1, in data set [1], the binding result is recorded as “binds”.

With AAAAATCAA (ssDNA) [primer initiation template 9-mer], the binding result in data set [2] is listed as “binds”.
